According to the supplement of paper PMC9112550, “Optimization of the antimicrobial peptide Bac7 by deep mutational scanning” (BMC Biology, 2022):

Each sequence was assayed on Escherichia coli TOP10 (assay: shrunken log2 fold change of peptide-encoding DNA abundance (4.5 h post-induction vs induction); higher = less antimicrobial activity (less host growth inhibition)). Details: time post-induction: 4.5 h; library: site-saturation at positions 5, 18, 19, 20.
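Also: peptides expressed intracellularly from a pBAD plasmid library in pooled LB shake-flask culture, induced with 0.3% L-arabinose, DNA abundance read by NGS, three biological replicates, DESeq2 with apeglm shrinkage.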

In order of falling “shrunken log2 fold change” value:
1. RRIRDRPPRLPRPRPRPGFDPRP  0.926
2. RRIRGRPPRLPRPRPRPGVQPRP  0.739
3. RRIRKRPPRLPRPRPRPKRVPRP  0.717
4. RRIRARPPRLPRPRPRPPKAPRP  0.685
5. RRIRPRPPRLPRPRPRPRLCPRP  0.646
6. RRIRKRPPRLPRPRPRPRCTPRP  0.555
7. RRIRGRPPRLPRPRPRPFFDPRP  0.541
8. RRIRKRPPRLPRPRPRPTRLPRP  0.537
9. RRIRGRPPRLPRPRPRPTKIPRP  0.462
10. RRIRPRPPRLPRPRPRPVGEPRP  0.415
11. RRIRGRPPRLPRPRPRPELIPRP  0.408
12. RRIRCRPPRLPRPRPRPVNWPRP  0.393
13. RRIRFRPPRLPRPRPRPFFPPRP  0.386
14. RRIRWRPPRLPRPRPRPAPWPRP  0.319
15. RRIRSRPPRLPRPRPRPLVEPRP  0.28
16. RRIRGRPPRLPRPRPRPQGNPRP  0.236
17. RRIRRRPPRLPRPRPRPEPSPRP  0.228
18. RRIRLRPPRLPRPRPRPTGEPRP  0.205
19. RRIRRRPPRLPRPRPRPLEVPRP  0.197
20. RRIRVRPPRLPRPRPRPESGPRP  0.177
21. RRIRHRPPRLPRPRPRPMRQPRP  0.143
22. RRIRNRPPRLPRPRPRPPEQPRP  0.112
23. RRIRTRPPRLPRPRPRPFMDPRP  0.108
24. RRIRSRPPRLPRPRPRPDWFPRP  0.0986
25. RRIRDRPPRLPRPRPRPDKCPRP  0.089
26. RRIRHRPPRLPRPRPRPHFSPRP  0.0854
27. RRIRHRPPRLPRPRPRPPGVPRP  0.0725
28. RRIRHRPPRLPRPRPRPHFEPRP  0.0715
29. RRIRPRPPRLPRPRPRPCPSPRP  0.0668
30. RRIRVRPPRLPRPRPRPPEKPRP  0.0629
31. RRIRCRPPRLPRPRPRPKNCPRP  0.0619
32. RRIRYRPPRLPRPRPRPRSPPRP  0.0591
33. RRIRGRPPRLPRPRPRPQHCPRP  0.0523
34. RRIRSRPPRLPRPRPRPQEWPRP  0.0425
35. RRIRLRPPRLPRPRPRPVKPPRP  0.0377
36. RRIRTRPPRLPRPRPRPVAVPRP  0.0298
37. RRIRPRPPRLPRPRPRPAAIPRP  0.0249
38. RRIRKRPPRLPRPRPRPICMPRP  0.0199
39. RRIRQRPPRLPRPRPRPVPLPRP  0.0148
40. RRIRWRPPRLPRPRPRPWADPRP  0.0109
41. RRIRIRPPRLPRPRPRPQANPRP  0.00435
42. RRIRYRPPRLPRPRPRPVVHPRP  -0.00114
43. RRIRCRPPRLPRPRPRPKAYPRP  -0.0053
44. RRIRTRPPRLPRPRPRPFTKPRP  -0.0107
45. RRIRHRPPRLPRPRPRPPWQPRP  -0.0158
46. RRIRFRPPRLPRPRPRPHEWPRP  -0.0176
47. RRIRDRPPRLPRPRPRPKFSPRP  -0.023
48. RRIRDRPPRLPRPRPRPKKHPRP  -0.0344
49. RRIRTRPPRLPRPRPRPEYSPRP  -0.0382
50. RRIRMRPPRLPRPRPRPIDYPRP  -0.0477
51. RRIRLRPPRLPRPRPRPQLIPRP  -0.0529
52. RRIRRRPPRLPRPRPRPEGNPRP  -0.0565
53. RRIRIRPPRLPRPRPRPRDHPRP  -0.0591
54. RRIRWRPPRLPRPRPRPNIQPRP  -0.0736
55. RRIRSRPPRLPRPRPRPCPVPRP  -0.0785
56. RRIRDRPPRLPRPRPRPNWNPRP  -0.1
57. RRIRHRPPRLPRPRPRPCYFPRP  -0.117
58. RRIRARPPRLPRPRPRPQGVPRP  -0.128
59. RRIRARPPRLPRPRPRPSTGPRP  -0.131
60. RRIRDRPPRLPRPRPRPLNHPRP  -0.154
61. RRIRARPPRLPRPRPRPWNVPRP  -0.181
62. RRIRQRPPRLPRPRPRPMWLPRP  -0.22
63. RRIRYRPPRLPRPRPRPGMQPRP  -0.224
64. RRIRTRPPRLPRPRPRPVFYPRP  -0.25
65. RRIRFRPPRLPRPRPRPMTDPRP  -0.269
66. RRIRIRPPRLPRPRPRPMDVPRP  -0.361
67. RRIRNRPPRLPRPRPRPWNGPRP  -0.368
68. RRIRSRPPRLPRPRPRPFSHPRP  -0.388
69. RRIRFRPPRLPRPRPRPNWNPRP  -0.42
70. RRIRFRPPRLPRPRPRPFNIPRP  -0.429
71. RRIRYRPPRLPRPRPRPVVNPRP  -0.683
72. RRIRERPPRLPRPRPRPICPPRP  -0.794
73. RRIRPRPPRLPRPRPRPSNMPRP  -0.884
74. RRIRTRPPRLPRPRPRPYCLPRP  -0.999
75. RRIRLRPPRLPRPRPRPWDHPRP  -1.04
